# According to the supplement of paper PMC12636428:
# Tested on: Saccharomyces cerevisiae
# Assay: transcriptional activation domain activity (GFP:mCherry ratio, weighted mean of sorted bins, harmonized to initial dataset scale) (arbitrary fluorescence ratio units); higher = stronger transcriptional activation
# Details: beta-estradiol 1 µM; induction time 4 h
# Procedure, shortened: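 Protein tiles carrying barcodes and fused to an estradiol-inducible synthetic transcription factor were placed at the URA3 locus of yeast diploids with a GFP reporter. Following 4 hours at 30 °C in SC with 1 uM beta-estradiol, cells were sorted into 8 GFP:mCherry bins, barcodes were sequenced, and tiles with fewer than 50 reads were discarded. Activation activity is given as the read-weighted mean of bin median fluorescence, averaged across barcodes and linearly mapped to the initial dataset scale.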
row,Sequence,transcriptional activation domain activity
1,GGAARVDREEMPGVTLCLRHLSACVLGVFLVESSKKVLVVVRTEPITLSKSFG,45200
2,GGADTKQGAKIACLECRTAKIKCSAPTDGVVPCRRCVRHGRECIFEKHRRGRK,42200
3,GGAGKGKGAAAAAAKAAGAARDVEDIVAREPEPHHKGAGGAGKGKGAAAAAAK,41900
4,GGALSHHEIRVHWAPSWVSSRAPCSTRGLGCKPGVSLIETVVRAVVLMSCARK,46200
5,GGDSVVDILFSQTSATEFVTVGGTGNVYHWDMEYSFSRNDDDNEDEVRVAAPE,38300
6,GGEDALGRAAEEEGVRSGGLSSEQQDREEARGEARDRQHRVACFGGRRECAGG,48500
7,GGEDIAAAENTGGSPAAGSGRGRGRSSRGGRGRGSGRGRGRGGSNAAGGSAAG,16500
8,GGEEEEGAPKRPAKKARPSVESEAEVKEEEEEEDAVKPKRGRRTAKSASSSRK,27300
9,GGEEGRRKEREAGGRGTQKGEEEGDEVGRGGRGRRQREGRERGEARAGAGRRR,30800
10,GGEGALTVAASARERERERERDREEREKREKRERARESQAVKRKKRPAEKEPP,38000
11,GGEGEKKKREGKEGREKRGGRRKKGRGKKGRGREGRKKGKRKREGKGKKGEKR,24600
12,GGEGGAARNGRKRAENARRGREGGKERGPGNKTVAGQEAGGRGHREDRGGSDR,40500
13,GGEGRGGHPAACRGGCFARYPFTPSFLLYFLLLFFYRGVHVPISFFFLFLFLF,46500
14,GGERREREEGTERREKEEAGRRRRESGRGQEGKKRGEGGGGRKKRGRDGGGPG,38500
15,GGETAAPPAEPAPAPAAEPEEEEEPVKGKGKGGKGGKKGGKGGKKAKKEEVPA,23600
16,GGETEGESPEAPVPGGETPSEGGETETPSEGGETEGESPETPVPGGETPSEGG,16800
17,GGGEAQKPRPAAERKKQEANGHAHHDHSQGNHHGHRHKHAKDAKKAEDGGARK,32500
18,GGGGAGEEDAKGKARADEDVRESSRAKSTSKRKTSAAASGSESDSASSSSSYS,14900
19,GGGGDNAAAGEKNSSSSSNSHHNSSKKSGRGGRSNSESRNEGGGRSTAGGGSA,31800
20,GGGGGGAEGARGANESGGRGDGRRRGAGARARARQGGRGRGGGGRGGTKGGRG,9940
21,GGGGGGGGSYGAFGGGGKTCYTCGGVGHLSRDCVQGSKCYNCSGIVRDVILVE,67800
22,GGGGGSSRKRARGGESEDEAAGARANGVGNGPSNGKGKEKGKEVVDDGVAVGS,55900
23,GGGGGVGGEKGEEGGGEEEEDEEEEEEEGEEDEEEEGGGAAAKEKGKGKGKGK,8640
24,GGGGQKRKAGAAQDDASSQQPKKKKAKKGGKGKGAQQQKQQGGASGSGGGQAS,31500
25,GGGKGHEDGYMREVRVVPAYLLVEIINRKENRKERVGAKLLLTRACVLGLYTL,45400

row,Sequence,transcriptional activation domain activity
1,GGGNRGRWPGDDSSDSSSSENERRGRRERRRRHRRRSASPDARRSGKGDAPKQ,< 6570
2,GGGSAVWIFLYCVWYYFVKLQITGFLSSLLFFSYSLMACCVYGLLTGMVGFLT,60400
3,GGGSEERGGRGRQEGGKDREAGGRERGSAGEREETEGGTGAEGGGGGERRQGE,32300
4,GGGTAARSAGSSSREEERGQRRHGRGERGREGADAGRKGGREGTREALAGKGR,30800
5,GGGTDPRHLHVVSVMLVKGVPFYGYHIGYSYFLKVSLVNPSRMFVALEQLRKP,30000
6,GGIIMAFFLRLNFGLWGICIALFGLRGQAELPLLIHVQRHILSIYVIIPRWFW,56300
7,GGISKGENAHNFQNDTKKNMSTSNLFPFSFSNTDLTALFTHPEGPNCTNTNNG,56600
8,GGKAKGRKGKEKEKEKEVADKPAARKCAAPKAAPKKATVKKAAKKVKETGKGS,28700
9,GGKEEGGEETGERATKQQKTTPQESNKGSQGGNNNQRQGGGRNRHGRNRNGGG,30400
10,GGKKGGRTKGATARDKSPEGRTDRPASKGKSLKTGGEDGKGKKSGERAGKLAH,60400
11,GGKKKKAAAAVLETETEGEGEKENKSAEKGKAGSNGGGKKGKGKKGANGVANG,23400
12,GGKRKGEQGHGAGQRGKGDGQGRGGRGRGRGEGGEEKGRRAERKEERGRRGRS,16300
13,GGLCAANFVAILITASVNIWTLLGNVYYSPLVNRCVCVARPEWMWTIWIFPLL,46700
14,GGLFGAKPATTGGLFGSTPAAQPAQTGGLFGGGGTTGGFGASTTGGAFGSTPA,48500
15,GGLSELKDSLDDSQVQYAYARVEYANDSESTRVKFVLVIWIGESTKVMRKARV,46700
16,GGLWNLVMWHWMLSFLAGICCFFLQILTYIWLQESSVIRISTSCLAGFWILPL,91700
17,GGNIHIRSLFIIAMVFLFFGLVLLTIGFFSDFRKSWFVWRLRTCWLWANGTRF,57800
18,GGPARRMKPGAPDARREEGGKKKRGATNDTGAAKEKAPAKGRKGKKKPAEESE,44500
19,GGRGGGRGGRGGGGRGGRDRDGGRGGGRGRGGRGGGEGEEVVGTEGKDGGAEA,18300
20,GGRKRRKEREQQRERPDEEQSRPGSRDDEEGEKEGRGKGTKARKGAGGAAGKG,27600
21,GGSGASPPPPDNRPPEERYAEQLRQLNDMGFYDFDRNVAALRRSGGSVQGAIE,29100
22,GGSKRDREDSRKGGKTSSRGGRLTEDGPSSSHTKKPRKGKKGEEAKEGGEKSS,25100
23,GGTASPPPPPDNRPPEERYAEQLRQLNDMGFFDFDRNVEALRRSGGSVQGAIE,28300
24,GGTRRSSNQFGKRNTVALHPVINDFVGTVDSDSLVTAYKPFLASDFIGRGYDD,28300
25,GGVAAREAKRKGRGRGEEEGRGAVCGGRGARGGARGRGGGGGRTGRAGGARAL,23500

row,Sequence,transcriptional activation domain activity
1,GGVNWESTRDREAVVIRILSPIVEADGSVYICIWIHPVGIIIVHLIVELKLVH,42300
2,GGVSRIRQGERQGAGAGGAEGKSRKGAAAGRGKGGEQGGERGGSREGKGGGAG,37500
3,GHDGHGKGHGHGKGGHGRYARGEEAELEERGYGHGHGGHGKGGHGRYAREEEA,21100
4,GHDGPQQQQQRKKPAAAAAAGKGKEKGKGKGKGQVVVVASKPAKKAASAAAAA,28700
5,GHERERGSGREKRGGERDATGRRERDRESGRESRESRESSRRERGSRDEGRRD,39800
6,GHFVRVGTTFFTMYAVNIFLSYARYIAAHFRISVIVISRLMLNLRNPVTFEST,60400
7,GHGKLGYFTGKAVASIYRFILSSLHFASIFILLGKPTSSFGFIYLVIMLQFWC,50200
8,GHGSSDGGRPPAKRARKAINCEPCRSSKLKCDRNRPCSSCVLRGTAAQCYPGS,38800
9,GHGTHCSGTVAGKKYGVAKKANVYAVKVLRSNGSGTMSDVVKGVEYAAEQHSE,< 6570
10,GHGTHCSGTVAGKKYGVAKKASVYAVKVLRSNGSGTMSDVVKGVEYAAESHIK,7670
11,GHKAEESVPRKPSRSKSKAREAEWAPDGGEEPVSRKPSRSKAKPKAAEVEKED,23200
12,GHKGRHLAEAAGLALGAKKLMKHRSHSRPGRSPSPEGHHRARHLAEAGIAAAG,43900
13,GHLLVVSISIIIKAMHGCLYCPIFMYVTTYGYYLWIASFIWRAYYLRFQLTLH,43600
14,GHSGNNAHSHLQKPHGHAGKTRSEVGGRSGEGGEGNGGAGGGELGKGVAAGRL,13700
15,GHSGVSVDMHVSFLNSCREGEKVIIKSVIDKKGSRLAFVRVEIKRERDDAIII,49500
16,GHSIPRLNFGDGYNLNNGRAYRGGTWASTLRYRKSNGLWYWIGCVNFWHTWIF,75000
17,GHSTSTFNTYDEVVSRPFISLDMLHLNRGANANTHPSHNAKLESECDSSSHSD,38700
18,GHVRSHNDERPFACGWAGCERAFARQHDCRRHEQRHARDLEREREREFACAGC,38100
19,GHWSYFRNSSMILNFFYKNIIGIGVLFWFQIFCGWSTTYVFAYVYLLFWNVFW,51500
20,GIESAGLEVITAQQLEQYAKDQKVLSNCMERNGITAVLCVGLRYIACLIMIIY,66200
21,GIFCSPFFPFFVPLFCPPFPPPSLFPPLCISLPLSMPNSLLFLFTILYEYAGC,56200
22,GIHETLSFYFVFVCFLYGLRSMALMIGLTGALFLLFMDMLVFGMATAVLIDYG,50700
23,GIISRLVRHAHEMSYITSPLCELAAMLSINWWVKRPFIYFELFGYIRMVLLQS,86400
24,GILFATEGLYTMRFSSWYVRGLFISASIMLFFCYVVARVIIVVVMFTSLRGLP,49900
